# Laboratory results taken from article PMC10156769, “The novel anti-cancer fluoropyrimidine NUC-3373 is a potent inhibitor of thymidylate synthase and an effective DNA-damaging agent” (Cancer Chemotherapy and Pharmacology, 2023).
# Tests used:
# purified protein = substrate: O=c1ccn([C@H]2C[C@H](O)[C@@H](COP(=O)(O)OP(=O)(O)OP(=O)(O)O)O2)c(=O)[nH]1; test: purified protein; details: Mg2+ ([…] MgCl2 in the assay buffer)
# [1] = substrate: O=c1[nH]c(=O)n([C@H]2C[C@H](O)[C@@H](COP(=O)(O)OP(=O)(O)OP(=O)(O)O)O2)cc1F; test: EnzChek pyrophosphate coupled assay, Michaelis-Menten substrate kinetics (KM); assay type: biochemical, Homo sapiens; details: Mg2+ ([…] MgCl2 in the assay buffer)
protein,measurement,setting,value
dUTPase (Deoxyuridine triphosphate nucleotidohydrolase) (Homo sapiens) (protein) ASTVGAAGWKGELPKAGGSPAPGPETPAISPSKRARPAEVGGMQLRFARLSEHATAPTRGSARAAGYDLYSAYDYTIPPMEKAVVKTDIQIALPSGCYGRVAPRSGLAAKHFIDVGAGVIDEDYRGNVGVVLFNFGKEKFEVKKGDRIAQLICERIFYPEIEEVQALDDTERGSGGFGSTGKN,Km,purified protein,3.2 ± 1.8 µM
same,Km,[1],19.1 ± 6.7 µM
